Reference: PMC9464890, “Exosite binding modulates the specificity of the immunomodulatory enzyme ScpA, a C5a inactivating bacterial protease” (Computational and Structural Biotechnology Journal, 2022)
Positions count from the first letter of the chain named. Names and notes keep the numbering of the source.

T1: ScpAΔFn123 (Streptococcus pyogenes) (UniProt P15926)
T1 sequence: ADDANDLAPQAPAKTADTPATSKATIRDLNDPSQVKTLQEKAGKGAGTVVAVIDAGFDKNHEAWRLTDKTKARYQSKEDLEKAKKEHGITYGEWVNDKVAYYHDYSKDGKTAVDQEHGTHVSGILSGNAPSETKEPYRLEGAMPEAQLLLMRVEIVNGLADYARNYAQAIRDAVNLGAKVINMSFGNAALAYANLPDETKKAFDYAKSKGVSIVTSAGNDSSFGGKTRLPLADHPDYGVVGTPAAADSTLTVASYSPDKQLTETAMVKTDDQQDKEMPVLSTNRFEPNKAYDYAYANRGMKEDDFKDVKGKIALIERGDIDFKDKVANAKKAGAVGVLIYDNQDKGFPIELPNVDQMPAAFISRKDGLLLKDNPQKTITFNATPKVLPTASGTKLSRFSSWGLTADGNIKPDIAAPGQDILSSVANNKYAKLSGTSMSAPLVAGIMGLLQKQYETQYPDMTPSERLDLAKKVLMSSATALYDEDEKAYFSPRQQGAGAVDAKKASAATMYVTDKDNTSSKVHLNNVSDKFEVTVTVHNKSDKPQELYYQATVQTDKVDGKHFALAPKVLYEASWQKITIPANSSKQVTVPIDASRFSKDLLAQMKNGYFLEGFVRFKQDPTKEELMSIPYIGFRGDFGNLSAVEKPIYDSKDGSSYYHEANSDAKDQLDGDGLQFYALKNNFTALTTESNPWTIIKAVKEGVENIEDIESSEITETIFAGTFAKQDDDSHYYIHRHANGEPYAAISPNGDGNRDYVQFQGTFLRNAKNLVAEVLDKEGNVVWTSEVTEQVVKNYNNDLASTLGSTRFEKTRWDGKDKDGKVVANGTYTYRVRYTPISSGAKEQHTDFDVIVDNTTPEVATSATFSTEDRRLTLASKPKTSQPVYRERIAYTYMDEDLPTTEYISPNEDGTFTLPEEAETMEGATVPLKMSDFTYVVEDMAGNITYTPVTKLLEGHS

B1: Fn123 (domain or fragment)
chain: T1 sequence
B2: ScpA_(S512A) (enzyme)
chain: ANTVTEDTPVTEQAVETPQPTAVSEEVPSSKETKTPQTPDDAEETIADDANDLAPQAPAKTADTPATSKATIRDLNDPSQVKTLQEKAGKGAGTVVAVIDAGFDKNHEAWRLTDKTKARYQSKEDLEKAKKEHGITYGEWVNDKVAYYHDYSKDGKTAVDQEHGTHVSGILSGNAPSETKEPYRLEGAMPEAQLLLMRVEIVNGLADYARNYAQAIRDAVNLGAKVINMSFGNAALAYANLPDETKKAFDYAKSKGVSIVTSAGNDSSFGGKTRLPLADHPDYGVVGTPAAADSTLTVASYSPDKQLTETAMVKTDDQQDKEMPVLSTNRFEPNKAYDYAYANRGMKEDDFKDVKGKIALIERGDIDFKDKVANAKKAGAVGVLIYDNQDKGFPIELPNVDQMPAAFISRKDGLLLKDNPQKTITFNATPKVLPTASGTKLSRFSSWGLTADGNIKPDIAAPGQDILSSVANNKYAKLSGTAMSAPLVAGIMGLLQKQYETQYPDMTPSERLDLAKKVLMSSATALYDEDEKAYFSPRQQGAGAVDAKKASAATMYVTDKDNTSSKVHLNNVSDKFEVTVTVHNKSDKPQELYYQATVQTDKVDGKHFALAPKVLYEASWQKITIPANSSKQVTVPIDASRFSKDLLAQMKNGYFLEGFVRFKQDPTKEELMSIPYIGFRGDFGNLSAVEKPIYDSKDGSSYYHEANSDAKDQLDGDGLQFYALKNNFTALTTESNPWTIIKAVKEGVENIEDIESSEITETIFAGTFAKQDDDSHYYIHRHANGEPYAAISPNGDGNRDYVQFQGTFLRNAKNLVAEVLDKEGNVVWTSEVTEQVVKNYNNDLASTLGSTRFEKTRWDGKDKDGKVVANGTYTYRVRYTPISSGAKEQHTDFDVIVDNTTPEVATSATFSTEDRRLTLASKPKTSQPVYRERIAYTYMDEDLPTTEYISPNEDGTFTLPEEAETMEGATVPLKMSDFTYVVEDMAGNITYTPVTKLLEGHS
B3: ScpA_(S512A,D889A) (enzyme)
chain: B2 chain with D859A
B4: ScpA_(S512A,E864A) (enzyme)
chain: B2 chain with E834A

Key:
C5a (Homo sapiens) = C5a (Homo sapiens) (UniProt P01031); assay: SPR; details: cited from earlier work
C5a (Homo sapiens), sequence (P01031 678-751): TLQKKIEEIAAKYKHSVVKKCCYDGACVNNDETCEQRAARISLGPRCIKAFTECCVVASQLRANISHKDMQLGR

[1] = target: T1, ScpAΔFn123 (Streptococcus pyogenes)
R46A_(core) (human) = assay: SPR; BIAcore X100, NTA sensor chip with about 20-25 RU of immobilised His-tagged C5a form (ligand), ScpA form flowed as ligate at 30 uL/min, 25 °C, 10 mM Hepes-KOH pH 7.4, 150 mM NaCl, 0.005% Tween 20, 50 uM EDTA; global fit, 1:1 Langmuir model with drifting baseline; triplicate
rhC5a_(R37A) (human) = assay: as above
rhC5a_(R40A) (human) = assay: as above
rhC5a_(R46A) (human) = assay: as above
R37A_(core) (human) = assay: as above
R40A_(core) (human) = assay: as above
rhC5a_(core) (human) = assay: as above

| Molecule | Kd (R46A_(core) (human)) [nM] | koff (R46A_(core) (human)) [s⁻¹] | kon (R46A_(core) (human)) [M⁻¹ s⁻¹] | Kd (rhC5a_(R37A) (human)) [nM] | koff (rhC5a_(R37A) (human)) [s⁻¹] | kon (rhC5a_(R37A) (human)) [M⁻¹ s⁻¹] | Kd (rhC5a_(R40A) (human)) [nM] | koff (rhC5a_(R40A) (human)) [s⁻¹] | kon (rhC5a_(R40A) (human)) [M⁻¹ s⁻¹] | Kd (rhC5a_(R46A) (human)) [nM] | koff (rhC5a_(R46A) (human)) [s⁻¹] | kon (rhC5a_(R46A) (human)) [M⁻¹ s⁻¹] | Kd (R37A_(core) (human)) [nM] | koff (R37A_(core) (human)) [s⁻¹] | kon (R37A_(core) (human)) [M⁻¹ s⁻¹] | Kd (R40A_(core) (human)) [nM] | koff (R40A_(core) (human)) [s⁻¹] | kon (R40A_(core) (human)) [M⁻¹ s⁻¹] | Kd (rhC5a_(core) (human)) [nM] | koff (rhC5a_(core) (human)) [s⁻¹] | also measured |
| --- | --- | --- | --- | --- | --- | --- | --- | --- | --- | --- | --- | --- | --- | --- | --- | --- | --- | --- | --- | --- | --- |
| ScpA (from UniProt P58099) | – | – | – | – | – | – | – | – | – | – | – | – | – | – | – | – | – | – | – | – | Kd (C5a (Homo sapiens)): 35 nM |
| B1 | – | – | – | – | – | – | – | – | – | – | – | – | – | – | – | – | – | – | – | – | C5a-ase activity of ScpAΔFn123 complemented with Fn123, end-point assay, relative to the wild-type enzyme (data not shown) [1]: 0.1% |
| B2 | 691 | 0.0152 | 22000 | 217 | 0.0176 | 81200 | 290 | 0.0274 | 94400 | 220 | 0.0226 | 103000 | 453 | 0.0151 | 33300 | 1340 | 0.0258 | 19300 | 170 | 0.0075 | kon (rhC5a_(core) (human)): 45000 M⁻¹ s⁻¹ |
| B3 | 965 | 0.0121 | 12500 | 68.3 | 0.00934 | 137000 | 94.9 | 0.0259 | 273000 | 86.6 | 0.0129 | 148000 | 384 | 0.0115 | 30100 | 734 | 0.0182 | 24800 | 90 | 0.004 | kon (rhC5a_(core) (human)): 44400 M⁻¹ s⁻¹ |
| B4 | 624 | 0.0132 | 21200 | 67.1 | 0.0101 | 150000 | 346 | 0.0271 | 78500 | 62.1 | 0.0213 | 344000 | 532 | 0.0121 | 22800 | 751 | 0.0195 | 26100 | 88.7 | 0.00438 | kon (rhC5a_(core) (human)): 49300 M⁻¹ s⁻¹ |
